Measurements reported in paper PMC9832388.
Like-named read-outs stand apart in the source and are kept apart here.

What was measured:
[1] = target: C3b with FH CCP 1-4 P26S (UniProt P01024); experiment: SPR; TMC building, FH variants: FH1-4 (118-14.75 nM) co-injected with 118 nM inactive (S525A) FI onto C3b (1000 RU, thiol/thioester coupled) CM5 chip; PBST + 1 mM MgCl2, 25°C, 2 min at 30 µl/min
[2] = target: C3b with FH CCP 1-4 R232Q (UniProt P01024); experiment: as above
[3] = target: C3b with FH CCP 1-4 T91S (UniProt P01024); experiment: as above
[4] = target: C3b with FH CCP 1-4 R83S (UniProt P01024); experiment: as above
[5] = target: C3b with FH CCP 1-4 R166W (UniProt P01024); experiment: as above
[6] = target: C3b:FH complex (C3b with WT FH CCP 1-4) (UniProt P01024); experiment: as above
[7] = target: C3b:FH complex (C3b with WT FH CCP 1-4) (UniProt P01024)
[8] = target: C3b:FH complex (C3b with WT FH CCP 1-4) (UniProt P01024); remark: listed apart in the source
[9] = target: C3b:FH complex (C3b with WT FH CCP 1-4) (UniProt P01024); experiment: SPR; TMC building, FI variants: FI variants on the inactive (S525A) backbone (125-15.625 nM; 62.5 nM shown) co-injected with FH1-4 at constant concentration (125 nM in the methods, 118 nM in the legend) onto thioester-coupled C3b (1000 RU); PBST + Mg2+
[10] = target: C3b (UniProt P01024); experiment: SPR; BIAcore S200; C3b (800-1000 RU) on a CM5 chip; FH1-4 variants flowed at 20 to 0.3125 µM, 90 s at 30 µL/min; steady state fit, estimated KD; done once in HBST and once in PBST (PBST shown)
[11] = target: C3b (UniProt P01024)
[12] = target: C3b (UniProt P01024); experiment: SPR; BIAcore S200; C3b (800-1000 RU) on a CM5 chip; FH1-4 variants flowed at 20 to 0.3125 µM, 90 s at 30 µL/min; steady state fit, estimated KD; done once in HBST and once in PBST (PBST shown); remark: listed apart in the source

C3b, sequence (P01024 23-667, chain 1 of 2): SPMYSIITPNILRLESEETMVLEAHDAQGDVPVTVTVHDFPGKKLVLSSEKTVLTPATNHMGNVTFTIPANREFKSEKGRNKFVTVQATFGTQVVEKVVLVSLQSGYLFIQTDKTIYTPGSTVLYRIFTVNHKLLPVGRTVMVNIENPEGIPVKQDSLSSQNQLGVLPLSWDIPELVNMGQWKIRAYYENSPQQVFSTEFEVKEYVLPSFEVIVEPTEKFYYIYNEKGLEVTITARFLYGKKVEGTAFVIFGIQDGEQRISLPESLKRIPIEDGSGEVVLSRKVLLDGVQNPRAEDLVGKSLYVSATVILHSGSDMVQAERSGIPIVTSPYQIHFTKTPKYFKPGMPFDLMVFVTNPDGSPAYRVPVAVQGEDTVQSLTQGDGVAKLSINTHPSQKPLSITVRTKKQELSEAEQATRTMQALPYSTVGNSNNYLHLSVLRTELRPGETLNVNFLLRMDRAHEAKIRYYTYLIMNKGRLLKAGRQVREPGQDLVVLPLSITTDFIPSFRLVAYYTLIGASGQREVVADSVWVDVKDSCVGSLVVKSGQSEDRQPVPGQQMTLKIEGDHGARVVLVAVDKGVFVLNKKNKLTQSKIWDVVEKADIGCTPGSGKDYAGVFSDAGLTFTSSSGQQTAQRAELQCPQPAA
C3b, sequence (P01024 749-1663, chain 2 of 2): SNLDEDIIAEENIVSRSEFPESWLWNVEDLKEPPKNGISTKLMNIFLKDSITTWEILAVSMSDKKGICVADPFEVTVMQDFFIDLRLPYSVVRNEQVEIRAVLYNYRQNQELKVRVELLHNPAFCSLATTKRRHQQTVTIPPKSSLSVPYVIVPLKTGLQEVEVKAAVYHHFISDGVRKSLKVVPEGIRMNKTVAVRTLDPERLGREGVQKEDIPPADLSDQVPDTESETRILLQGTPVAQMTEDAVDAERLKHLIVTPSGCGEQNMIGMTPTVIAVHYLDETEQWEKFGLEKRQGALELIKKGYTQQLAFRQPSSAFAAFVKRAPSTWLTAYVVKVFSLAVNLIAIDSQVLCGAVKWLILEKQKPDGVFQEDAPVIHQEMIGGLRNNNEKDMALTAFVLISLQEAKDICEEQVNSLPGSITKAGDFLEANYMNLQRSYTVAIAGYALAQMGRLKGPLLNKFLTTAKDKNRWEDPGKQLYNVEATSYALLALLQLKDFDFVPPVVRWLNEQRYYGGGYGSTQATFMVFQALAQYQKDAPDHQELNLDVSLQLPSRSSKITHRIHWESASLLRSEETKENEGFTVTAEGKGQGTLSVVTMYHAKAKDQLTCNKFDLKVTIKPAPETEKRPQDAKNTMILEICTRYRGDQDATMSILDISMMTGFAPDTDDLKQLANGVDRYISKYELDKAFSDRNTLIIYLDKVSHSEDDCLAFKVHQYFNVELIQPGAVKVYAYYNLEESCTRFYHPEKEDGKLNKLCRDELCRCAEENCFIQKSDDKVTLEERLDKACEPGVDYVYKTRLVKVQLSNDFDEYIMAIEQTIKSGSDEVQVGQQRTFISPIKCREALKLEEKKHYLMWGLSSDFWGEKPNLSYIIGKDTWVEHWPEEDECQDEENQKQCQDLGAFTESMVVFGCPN
C3b:FH complex (C3b with WT FH CCP 1-4), sequence (P01024 23-667, chain 1 of 3): as the sequence (P01024 23-667, chain 1 of 2) above
C3b:FH complex (C3b with WT FH CCP 1-4), sequence (P01024 749-1663, chain 2 of 3): as the sequence (P01024 749-1663, chain 2 of 2) above
C3b:FH complex (C3b with WT FH CCP 1-4), sequence (P08603 19-1231, chain 3 of 3, further chain): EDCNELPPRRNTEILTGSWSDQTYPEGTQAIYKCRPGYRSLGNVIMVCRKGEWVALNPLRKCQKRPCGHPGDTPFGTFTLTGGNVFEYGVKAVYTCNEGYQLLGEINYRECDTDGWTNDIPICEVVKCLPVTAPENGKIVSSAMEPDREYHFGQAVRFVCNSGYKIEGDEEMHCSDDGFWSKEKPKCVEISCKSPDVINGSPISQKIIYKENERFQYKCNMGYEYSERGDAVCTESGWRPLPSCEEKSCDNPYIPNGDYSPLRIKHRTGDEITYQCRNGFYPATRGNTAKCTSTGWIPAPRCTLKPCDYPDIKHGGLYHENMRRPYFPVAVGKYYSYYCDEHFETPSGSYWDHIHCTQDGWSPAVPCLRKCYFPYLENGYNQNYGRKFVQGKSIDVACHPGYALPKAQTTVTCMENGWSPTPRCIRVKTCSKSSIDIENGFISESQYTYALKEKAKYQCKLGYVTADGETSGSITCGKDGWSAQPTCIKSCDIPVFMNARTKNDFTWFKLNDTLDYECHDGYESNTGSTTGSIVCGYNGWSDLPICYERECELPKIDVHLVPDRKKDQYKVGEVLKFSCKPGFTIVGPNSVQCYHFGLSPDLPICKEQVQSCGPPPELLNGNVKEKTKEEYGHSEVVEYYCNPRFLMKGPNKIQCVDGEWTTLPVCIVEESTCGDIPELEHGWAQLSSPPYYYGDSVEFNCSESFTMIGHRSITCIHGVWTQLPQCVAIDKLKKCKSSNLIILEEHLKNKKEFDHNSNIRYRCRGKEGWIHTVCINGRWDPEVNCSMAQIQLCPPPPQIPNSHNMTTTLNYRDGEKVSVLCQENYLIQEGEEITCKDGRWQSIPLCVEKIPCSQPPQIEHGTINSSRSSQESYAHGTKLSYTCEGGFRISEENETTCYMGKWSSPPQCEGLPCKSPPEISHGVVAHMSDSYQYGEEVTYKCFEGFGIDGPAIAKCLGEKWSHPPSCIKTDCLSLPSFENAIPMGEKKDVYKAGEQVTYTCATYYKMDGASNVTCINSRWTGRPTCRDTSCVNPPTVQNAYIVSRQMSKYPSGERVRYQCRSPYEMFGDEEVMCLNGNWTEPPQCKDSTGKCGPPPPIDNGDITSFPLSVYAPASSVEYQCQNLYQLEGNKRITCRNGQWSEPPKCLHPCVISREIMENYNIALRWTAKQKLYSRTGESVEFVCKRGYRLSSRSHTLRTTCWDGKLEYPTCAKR
C3b with FH CCP 1-4 R166W, sequence (P01024 23-667, chain 1 of 3): as the sequence (P01024 23-667, chain 1 of 2) above
C3b with FH CCP 1-4 R166W, sequence (P01024 749-1663, chain 2 of 3): as the sequence (P01024 749-1663, chain 2 of 2) above
C3b with FH CCP 1-4 R166W, sequence (P08603 19-1231 R166W, chain 3 of 3, further chain): as the sequence (P08603 19-1231, chain 3 of 3, further chain) above, with R148W counted along it
C3b with FH CCP 1-4 P26S, sequence (P01024 23-667, chain 1 of 3): as the sequence (P01024 23-667, chain 1 of 2) above
C3b with FH CCP 1-4 P26S, sequence (P01024 749-1663, chain 2 of 3): as the sequence (P01024 749-1663, chain 2 of 2) above
C3b with FH CCP 1-4 P26S, sequence (P08603 19-1231 P26S, chain 3 of 3, further chain): as the sequence (P08603 19-1231, chain 3 of 3, further chain) above, with P8S counted along it
C3b with FH CCP 1-4 R83S, sequence (P01024 23-667, chain 1 of 3): as the sequence (P01024 23-667, chain 1 of 2) above
C3b with FH CCP 1-4 R83S, sequence (P01024 749-1663, chain 2 of 3): as the sequence (P01024 749-1663, chain 2 of 2) above
C3b with FH CCP 1-4 R83S, sequence (P08603 19-1231 R83S, chain 3 of 3, further chain): as the sequence (P08603 19-1231, chain 3 of 3, further chain) above, with R65S counted along it
C3b with FH CCP 1-4 R232Q, sequence (P01024 23-667, chain 1 of 3): as the sequence (P01024 23-667, chain 1 of 2) above
C3b with FH CCP 1-4 R232Q, sequence (P01024 749-1663, chain 2 of 3): as the sequence (P01024 749-1663, chain 2 of 2) above
C3b with FH CCP 1-4 R232Q, sequence (P08603 19-1231 R232Q, chain 3 of 3, further chain): as the sequence (P08603 19-1231, chain 3 of 3, further chain) above, with R214Q counted along it
C3b with FH CCP 1-4 T91S, sequence (P01024 23-667, chain 1 of 3): as the sequence (P01024 23-667, chain 1 of 2) above
C3b with FH CCP 1-4 T91S, sequence (P01024 749-1663, chain 2 of 3): as the sequence (P01024 749-1663, chain 2 of 2) above
C3b with FH CCP 1-4 T91S, sequence (P08603 19-1231 T91S, chain 3 of 3, further chain): as the sequence (P08603 19-1231, chain 3 of 3, further chain) above, with T73S counted along it

inactive FI (S525A FI) (from UniProt P05156 19-335; P05156 340-583) (enzyme)
peak RU of the TMC (59 nM FH1-4 with 118 nM S525A FI) [1]: 29 RU | peak RU of the TMC (59 nM FH1-4 with 118 nM S525A FI) [2]: 6 RU | peak RU of the TMC (59 nM FH1-4 with 118 nM S525A FI) [3]: 30 RU | peak RU of the TMC (59 nM FH1-4 with 118 nM S525A FI) [4]: 5 RU | peak RU of the TMC (59 nM FH1-4 with 118 nM S525A FI) [5]: 7 RU | RU of the TMC (118 nM FH1-4 with 118 nM inactive FI) [6]: 60 RU | peak RU of the TMC (59 nM FH1-4 with 118 nM S525A FI) [6]: 40 RU | inhibition of C3b cleavage by WT FI in a fluid phase CA assay with increasing S525A FI (15% at equimolar, 20% at 2-fold molar) [7]: 20%

H380R FI (from UniProt P05156 19-335; P05156 340-583) (enzyme)
inhibition of the activity of WT FI in a fluid phase CA assay with increasing H380R FI (~20% at equimolar, 35% at 2-fold molar) [8]: 35%

FI R406H/S525A (from UniProt P05156 19-335; P05156 340-583) (enzyme)
RU of the TMC (62.5 nM FI variant with FH1-4) [9]: 74.6 RU | percent of the response of inactive WT FI [9]: 77%

FH CCP 1-4 WT (from UniProt P08603 19-1231) (domain or fragment)
Kd [10]: 10 µM

FI K441R/S525A (from UniProt P05156 19-335; P05156 340-583) (enzyme)
RU of the TMC (62.5 nM FI variant with FH1-4) [9]: 91.2 RU | percent of the response of inactive WT FI [9]: 94%

FH CCP 1-4 P26S (from UniProt P08603 19-1231) (domain or fragment)
Kd [10]: 11.5 µM

FH CCP 1-4 T91S (from UniProt P08603 19-1231) (domain or fragment)
Kd [10]: 9.4 µM

FH CCP 1-4 R232Q (from UniProt P08603 19-1231) (domain or fragment)
fluid phase cofactor activity with FI and C3b: reduction in C3b α’ chain degradation (% reduced compared to WT) [11]: 41

FH CCP 1-4 R166W (from UniProt P08603 19-1231) (domain or fragment)
Kd [12]: 16 to 20 µM | Kd [10]: 16.7 µM

FI P553S/S525A (from UniProt P05156 19-335; P05156 340-583) (enzyme)
RU of the TMC (62.5 nM FI variant with FH1-4) [9]: 62.9 RU | percent of the response of inactive WT FI [9]: 65%
